# Reference: patent US20150212086A1
# Where no end group is shown, it is not given here.
# Molecular target: full-length MDGI (mammary-derived growth inhibitor) expressed from the pcDNA3-9E10 plasmid as a c-Myc fusion protein (mouse) (UniProt P11404)
# Assay: phage binding to U2OS cells transiently transfected with MDGI, 2 h at 4 C, bound phage titrated
binder,measurement,value
"CGLSGLGVA (peptide, not shown: large carriers, also: displayed on T7 phage capsid protein) [CooP displaying phage (phage 36), peptide sequence …]",fold increase of phage binding compared to the original library,10 fold
